Experimental findings from patent publication US12583915 (MEDPACTO, dated 2026) are described below.

Assay [1] addresses T1, human BAG2 protein (human, UniProt O95816 2-211).
T1 construct: also called BAG2 polypeptide; Bcl-2-associated athanogene 2
Briefly: selection of hybridoma clones by immunoblotting. A general note: Immunoblotting shows a protein as a band on a membrane.

Assay [2] has as its target T2, GST-Bag Full (GST fusion of full-length human BAG2) (human, UniProt O95816 1-211).
T2 construct: Expressed in HEK293T cells, tested in cell lysate by immunoblot; band at about 50 kDa; also called GST-Bag Full vector product; full-length BAG2 polypeptide; not shown: GST tag from the pcDNA3.1+/GST vector, about 26 kDa
Briefly: immunoblot on lysate of HEK293T cells transfected with GST-Bag Full vector. The text has this: Next, for domain mapping of the BAG2 antigen to which the ten antibodies identified in Section 1 above, cells, to which the GST-Empty vector (pcDNA3.1+/GST vector, NovoPro Bioscience Inc. China) having a molecular weight of about 26 kDa was introduced, was used as a negative control. GST-Bag Full vector, GST-Bag F1 vector, GST-Bag F2 vector, GST-Bag F3 vector, and GST-Bag F4 vector, each including polynucleotides encoding human BAG2 protein and polynucleotides encoding fragments of the BAG2 protein, were introduced into cells, and the cells with the vectors introduced thereinto were cultured to express the genes, and then, cell lysates were obtained. For cell lysates, immunoblotting was performed using each of the 10 antibodies. The polynucleotide encoding the human BAG2 protein has the nucleotide sequence of SEQ ID NO: 70. The GST-Bag F1, -Bag F2, -Bag F3, and -Bag F4 vectors consist of the nucleotide sequences of SEQ ID NOS: 71 to 74, respectively.
FIGS. 2A and 2B show the results of immunoblotting for the full-length BAG2 polypeptide of anti-BAG2 antibody or a fragment thereof. […] In detail, the immunoblotting was performed as follows: each of the vectors was introduced into HEK293T cells by lipofectamine transfection (Thermo Fisher Scientific, Inc., Waltham, MA, USA) method, and the obtained transformed cells were cultured at a temperature of 37° C. in DMEM (Welgene) medium containing 10% FBS, 100 U/ml penicillin and 100 µg/ml streptomycin for 30 hours, and then cells were isolated. The isolated cells were disrupted using the same method as described in connection with FIG. 1 and subjected to […] analysis on a 12% gel. For immunoblotting, after reacting for 1 hour with the same blocking solution as described in connection with FIG. 1, each of the 10 purified anti-BAG2 antibodies having a concentration of 2 mg/ml was used as a primary antibody at a dilution of 1/10000 dilution and bound to the cells. The goat anti-mouse HRP conjugate used as the secondary antibody was used at a 1/5000 dilution concentration, and Film-photosensing was carried out in the dark using EGL reagent (Amersham Pharmacia Biotech) as a substrate. Standard molecular marker sizes were expressed to confirm the size of BAG2.

For another assay, the target named is T3, Myc-tag BAG2 (Homo sapiens (Human), UniProt O95816 1-211, limits assumed).
T3 construct: Expressed in MDA-MB-231 cells; 30 ug of lysate tested in the sandwich ELISA against cells with the Myc-tag empty vector (EV); not tied to this vector in so many words; also called BAG2 overexpressed from the Myc-tag BAG2 expression vector; OE; not shown: Myc tag
Briefly: sandwich ELISA on lysate of MDA-MB-231 cells overexpressing Myc-tag BAG2 (OE) against empty vector cells (EV). On the technique in general: An ELISA detects its analyte on a solid surface through an enzyme-linked reagent.

The target of assay [3] is T1, human BAG2 protein. Briefly: Western blot on MDA-MB-231 cell lysate.

T1 sequence (O95816 2-211 limits assumed): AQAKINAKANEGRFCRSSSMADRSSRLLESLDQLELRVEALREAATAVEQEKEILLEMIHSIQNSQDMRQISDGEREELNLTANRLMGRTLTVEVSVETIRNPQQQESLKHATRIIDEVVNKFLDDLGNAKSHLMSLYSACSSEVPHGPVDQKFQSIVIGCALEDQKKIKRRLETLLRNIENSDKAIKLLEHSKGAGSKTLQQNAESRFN
T2 sequence (O95816 whole entry, the tested form may be a part): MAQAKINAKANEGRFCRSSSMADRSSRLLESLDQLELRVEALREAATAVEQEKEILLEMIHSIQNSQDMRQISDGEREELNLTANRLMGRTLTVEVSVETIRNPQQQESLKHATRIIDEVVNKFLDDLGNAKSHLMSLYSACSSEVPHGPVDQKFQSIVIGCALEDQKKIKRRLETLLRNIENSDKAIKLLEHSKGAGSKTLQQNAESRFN
T3 sequence (O95816 whole entry): as the sequence (O95816 whole entry, the tested form may be a part) above

B1: 3F12 antibody (antibody, V domains shown)
VH: QVQLQESGPDLVKPSQSLSLTCTVTGYSITSGYSWHWIRQFPGNKLEWMGYIYYRGSTNYNPSLKSRISITRDTSKNQFFLLLKSVTTEDTATYYCAREAYWGQGTLVTVSA
VL: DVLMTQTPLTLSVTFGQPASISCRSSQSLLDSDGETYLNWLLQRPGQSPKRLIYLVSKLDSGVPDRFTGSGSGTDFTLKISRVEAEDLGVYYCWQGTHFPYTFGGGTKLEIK
notes: Mouse monoclonal antibody from a hybridoma; also called anti-BAG2 antibody 3F12
As for B1, the binding result (with human BAG2 protein [1]; in assay [2]; in the assay with Myc-tag BAG2) was “binds” in each case.

B2: 2A11 antibody (antibody, V domains shown)
VH: QVQLQQPGAELVRPGASVTLSCKASGYTFTDYEMHWVKQTPVHGLEWIGIIDPETGGTAYNQKFKGKATLTADKSSSTAYMELRSLTSEDSAVYYCTRGKFYYSGRDYAMDYWGQGTSVTVSS
VL: DVLMTQTPLSLPVSLGDQASISCRSSQSIVHSNGNTYLEWYLQKPGQSPKLLIYKVSNRFSGVPDRFSGSGSGTDFTLKISRVEAEDLGVYFCFQGSQVPPTFGGGTKLEIK
notes: Mouse monoclonal antibody from a hybridoma; Capture antibody in the sandwich ELISA; also called anti-BAG2 antibody 2A11
For B2, the binding result (with human BAG2 protein [1]; in assay [2]; with Myc-tag BAG2) was “binds” each time.

B3: 3B5 antibody (antibody, V domains shown)
VH: EVQLQQSGPELVKPGASVKLSCKASGYSFTDYTFYWVRQSHGESLEWIGYIDPYNGGNTYNRKFKGKATLTVDKSSSTAFMHLNSLTSEDSAVYYCARGYYRYGGGGDFDYWGQGTTLTVSS
VL: DVLMTQTPLSLPVSLGDQASISCRSSQSLVHSNGNTYLHWYLQKPGQSPKLLIHKVSNRFSGVPDRFSGSGSGTDFTLKISRVEAEDLGIYFCSQNTHIPPTFAGGTKLEIK
notes: Mouse monoclonal antibody from a hybridoma; also called anti-BAG2 antibody 3B5
Regarding B3, the binding result (with human BAG2 protein [3]; in assay [2]) was “binds” in each case.

B4: 4C2 antibody (antibody, V domains shown)
VH: QVQLQQPGAELVRPGASVTLSCKASGYTFTDYEMHWVKQTPVHGLEWIGIIDPETGATAYNQKFKGKATLTADKSSSTAYMELRSLTSEDSAVYYCTRGKFYYSGRDYAMDYWGQGTSVTVSS
VL: DVLMTQTPLSLPVSLGDQASISCRSSQSIVHSNGNTYLEWYLQKPGQSPKLLFYKVSNRFSGVPDRFSGSGSGTDFTLKISRVEAEDLGVYFCFQGSQVPPTFGGGTKLEIK
notes: Mouse monoclonal antibody from a hybridoma; also called anti-BAG2 antibody 4C2
B4: the binding result (with human BAG2 protein [3]; in assay [2]) was “binds” in each case.

B5: 8C4 antibody (antibody, V domains shown)
VH: QVQLQQPGAELVRPGASVTLSCKASGYTFTDYEMHWVKQTPVHGLEWIGIIDPETAGTAYNQKFKGKATLTADKSSSTAYMELRSLTSEDSAVYYCTRGKFYYSGRDYAMDYWGQGTSVTVSS
VL: DVLMTQTPLSLPVSLGDQASISCRSSQSIVHSNGNTYLEWYLQKPGQSPKLLFYKVSNRFSGVPDRFSGSGSGTDFTLKISRVEAEDLGVYFCFQGSQVPPTFGGGTKLEIK
notes: Mouse monoclonal antibody from a hybridoma; also called 8G4 (as misprinted); anti-BAG2 antibody 8C4
On to B5, for which the binding result (in the assay with human BAG2 protein [3]; in assay [2]; with Myc-tag BAG2) was “binds” throughout.

B6: 9B12 antibody (antibody, V domains shown)
VH: QVQLQQSGAELVRPGTSVKVSCKASGYAFTNYMIEWIKQRPGQGLEWIGVINPGSGGSYYNEKVKGKATLTADRSSSTAYMQFSSLTADDSGVYFCRIYGNYKGYFDHWGQGTTLTVSS
VL: DIVMTQSPSSMYASLGERVTITCKASQDMNSYLSWFQQKPGKSPKTLIYRANRLVDGVPSRFSGSGSGQDYSLTISSLEYEDMGIYYCLQNDEFPFTFGSGTKLEMK
notes: Mouse monoclonal antibody from a hybridoma; Capture antibody in the sandwich ELISA; also called anti-BAG2 antibody 9B12
Turning to B6, the binding result (with human BAG2 protein [3]; in assay [2]; with Myc-tag BAG2) was “binds” each time.

B7: 9B3 antibody (antibody, V domains shown)
VH: EVQLQQSGAELVRPGTSVKVSCKASGYAFTNYMIEWIKQRPGQGLEWIGVINPGSGGSYYNEKVKGKATLTADKSSSTAYMQFSSLTADDSAVYFCRIYGNYKGYFDYWGQGTTLTVSS
VL: DIVMTQSPSSMYASLGERVTITCKASQDINSYLSWFQQKPGKSPKTLIYRANRLVDGVPSRFSGSGSGQDYSLTISSLEYEDMGIYYCLQNDEFPFTFGSGTKLEIK
notes: Mouse monoclonal antibody from a hybridoma; also called anti-BAG2 antibody 9B3
On to B7, for which the binding result (with human BAG2 protein [3]; in assay [2]) was “binds” in each case.

B8: 3B10 antibody (antibody, V domains shown)
VH: QVQLQQPGAELARPGTSVKVSCKASGHAFTNYMIEWIKQRPGQGLEWIGVINPGSGGTYYSEKVKGKATLTADRSSSTAYMQLSSLTADDSGVYFCRIYGNYKGYFDHWGQGTTLTVSS
VL: DIVMTQSPSSMYASLGERVTITCKASQDMNSYLSWFQQKPGKSPKTLIYRSNRLVDGVPSRFSGSGSGQDYSLTISSLDYEDMGIYYCLQNDEFPFTFGSGTKLEIK
notes: Mouse monoclonal antibody from a hybridoma; also called anti-BAG2 antibody 3B10
Take B8: the binding result (with human BAG2 protein [3]; in assay [2]) was “binds” throughout.

B9: 3G8 antibody (antibody, V domains shown)
VH: QIQLVQSGPELKKPGETVKISCKASGYSFTKYGMNWVKQAPGKDIKWMGWINTNTGEATYGEEVKGRFAFSLETSASTAYLQINNLKNEDTATYFCARLGLRYLDYWGQGTTLTVSS
VL: DIVMTQSPASLVVSLGQRATISCRASKSVSTSDYSYMHWYQQKPGQPPKVLIYLASNLESGVPARFSGSGSGTDFTLNIHPVEEEDAATYYCQHNRELPPTFGAGTKLELK
notes: Mouse monoclonal antibody from a hybridoma; also called 3 GB (as misprinted); anti-BAG2 antibody 3G8
With B9, the binding result (with human BAG2 protein [3]; in assay [2]; with Myc-tag BAG2) was “binds” throughout.
